Assay results taken from patent US20250326860A1.

How the values were obtained:
[1] = target: human CD3 on cells (Jurkat cells, human T cells) (human) (UniProt P07766); assay: binding to human CD3+ T cells
[2] = target: human CD3 on cells (Jurkat cells, human T cells) (human) (UniProt P07766); assay: binding to human CD8+ T cells
human CD3δε (human) = human CD3δε (human) (UniProt P07766); assay: binding to CD3δ/ε protein dimer
[3] = target: human CD20 on cells (human B cells; Raji, SU-DHL-8, SU-DHL-4, A3KAW, NAMALWA) (human) (UniProt P11836); assay: binding to human B cells
[4] = target: human CD3 on cells (Jurkat cells, human T cells) (human) (UniProt P07766); assay: binding to human CD4+ T cells
[5] = target: human CD20 on cells (human B cells; Raji, SU-DHL-8, SU-DHL-4, A3KAW, NAMALWA) (human) (UniProt P11836); assay: binding to Raji cells
[6] = target: cynomolgus monkey CD20 on B cells (cynomolgus monkey) (UniProt M4ZHZ6); assay: flow cytometry, monkey B cells
[7] = target: human CD20 on cells (human B cells; Raji, SU-DHL-8, SU-DHL-4, A3KAW, NAMALWA) (human) (UniProt P11836); assay: flow cytometry, human B cells

human CD20 on cells (human B cells; Raji, SU-DHL-8, SU-DHL-4, A3KAW, NAMALWA) (human), sequence (P11836 whole entry): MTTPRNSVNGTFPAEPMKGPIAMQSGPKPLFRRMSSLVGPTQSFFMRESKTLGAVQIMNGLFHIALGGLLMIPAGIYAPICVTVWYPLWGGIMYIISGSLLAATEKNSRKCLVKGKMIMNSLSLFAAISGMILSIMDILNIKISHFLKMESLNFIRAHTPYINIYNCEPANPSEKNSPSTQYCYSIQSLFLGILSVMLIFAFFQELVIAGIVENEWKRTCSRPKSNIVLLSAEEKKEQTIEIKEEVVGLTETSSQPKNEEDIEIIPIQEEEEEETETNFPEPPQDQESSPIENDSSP
human CD3 on cells (Jurkat cells, human T cells) (human), sequence (P07766 23-207): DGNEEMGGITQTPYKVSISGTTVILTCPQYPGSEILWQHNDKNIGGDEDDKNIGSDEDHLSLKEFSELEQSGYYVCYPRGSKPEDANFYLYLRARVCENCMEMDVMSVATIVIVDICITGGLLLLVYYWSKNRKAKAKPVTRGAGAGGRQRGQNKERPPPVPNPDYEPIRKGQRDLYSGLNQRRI

EC50 [1] | EC50 [2] | EC50 (human CD3δε (human)) | EC50 [3] | EC50 [4] | EC50 [5] | max MFI [6] | max MFI [7] | Substance
11.8 nM | 10.1 nM | 2.1 nM | 200 nM | 13.1 nM | 135 nM | – | – | Plamotamab analog (bispecific antibody)
– | > 2000 nM | – | – | > 2000 nM | > 8000 nM | 60.4 MFI | 1650 MFI | IgG1 isotype control antibody
